Literature values in article PMC6679586.

Biological target: Activin A mature domain mature domain (Homo sapiens) (UniProt P08476)

Q: With “Activin A prodomain prodomain (from UniProt P08476)” as the substance, how does the Kd read?
A: 5 nM
